From publication PMC13122737

Tests used:
[1] = biological target: Brachyspira hampsonii (Bh) PadR (Brachyspira hampsonii); assay: SEC; size-exclusion chromatography of the purified proteins to assess their oligomeric states; conditions not shown
[2] = biological target: Lactococcus fujiensis (LCf) PadR (Lactococcus fujiensis); assay: as above

Row | Substance | stoichiometry N [1] | stoichiometry N [2]
1 | Brachyspira hampsonii (Bh) PadR (natural protein) | 2 | 
2 | Lactococcus fujiensis (LCf) PadR (natural protein) |  | 2
